Measured values taken from PMC8238520 (2021).
Where no end group is shown, it is not given here. [ ]: non-standard residue; d: D form. pS = N[C@@H](COP(=O)(O)O)C(=O)O

B1: FAM-tagged PKCε pSer346/pSer368 phosphopeptide (peptide)
chain: DRSK[pS]APTSPCDQEIKELENNIRKAL[pS]FDNR
modifications: also: FAM label (end not given here)
B2: 14-3-3ζ dimer (natural protein)
chain: MDKNELVQKAKLAEQAERYDDMAACMKSVTEQGAELSNEERNLLSVAYKNVVGARRSSWRVVSSIEQKTEGAEKKQQMAREYREKIETELRDICNDVLSLLEKFLIPNASQAESKVFYLKMKGDYYRYLAEVAAGDDKKGIVDQSQQAYQEAFEISKKEMQPTHPIRLGLALNFSVFYYEILNSPEKACSLAKTAFDEAIAELDTLSEESYKDSTLIMQLLRDNLTLWTSDTQGDEAEAGEGGEN
B3: FAM-tagged PKCε pSer346/pSer350/pSer368 phosphopeptide (peptide)
chain: DRSK[pS]APT[pS]PCDQEIKELENNIRKAL[pS]FDNR
modifications: also: FAM label (end not given here)

Experiments:
Experiment in all cases: FP
[1] = molecular target: B2
[2] = molecular target: FAM-tagged PKCε pSer346/pSer350 phosphopeptide (UniProt P16054, phosphoserine at 346; phosphoserine at 350; FAM label (end not stated))
[3] = molecular target: FAM-tagged PKCε pSer346 phosphopeptide (UniProt P16054, phosphoserine at 346; FAM label (end not stated))

Kd [1] | Kd [2] | Kd [3] | Binder
30 nM | – | – | B1
– | 335 µM | 31.5 µM | B2
147 nM | – | – | B3
